Results on 71 variants are retold here after the Human Domainome abundance scans (Beltran et al. 2025).

± gives the uncertainty stated by the source.

B1: Steroid hormone receptor ERR2, residues 100 to 176; numbered along this chain, O95718 (parent)
chain: KRLCLVCGDIASGYHYGVASCEACKAFFKRTIQGNIEYSCPATNECEITKRRRKSCQACRFMKCLKVGMLKEGVRLD

The variants in the data set derive from B1. The data set can be described thus: abundance fitness (aPCA) (normalised: wild type 0, dead -1); higher = more abundant; growth selection in yeast, the domain comes from the species named. As to conditions: Homo sapiens.
Regarding KRLCLVCGDIASGYHYGVASCEACKAFFKRTIQGNIEYSDPATNECEITKRRRKSCQACRFMKCLKVGMLKEGVRLD, the abundance fitness is -0.982 ± 0.37.
The result for KRLCLVCGDIASGYHYGVASCEACKAFFKRTIQGNIEYSCPATNECEITKRRRKSCQACRFMKCLKVWMLKEGVRLD reads -0.806 ± 0.12.
On to KRLCLVCGDIASGYLYGVASCEACKAFFKRTIQGNIEYSCPATNECEITKRRRKSCQACRFMKCLKVGMLKEGVRLD, for which the abundance fitness is -0.223 ± 0.062.
Regarding KRLCLVCGDIASGYCYGVASCEACKAFFKRTIQGNIEYSCPATNECEITKRRRKSCQACRFMKCLKVGMLKEGVRLD, the abundance fitness is -0.435 ± 0.11.
Consider KRLCLVCGDIASGYHYGVASCEACKAFFKRTIQGNIEYSCPATNECEITKRRRKSPQACRFMKCLKVGMLKEGVRLD, for which the abundance fitness was -0.666 ± 0.15.
The value for KRLCLVCGDIASGYHYGVASCEACKAFFKRTIQGNIEYSCPATNECEITKRRRKSGQACRFMKCLKVGMLKEGVRLD was -0.718 ± 0.073.
KRLCLVCVDIASGYHYGVASCEACKAFFKRTIQGNIEYSCPATNECEITKRRRKSCQACRFMKCLKVGMLKEGVRLD: the abundance fitness was -1.11 ± 0.17.
The value for KRLCLVCPDIASGYHYGVASCEACKAFFKRTIQGNIEYSCPATNECEITKRRRKSCQACRFMKCLKVGMLKEGVRLD was -0.725 ± 0.16; that for KRLCLVCGDIASGYHYGVASCEACKAFFKRTIQGNIEWSCPATNECEITKRRRKSCQACRFMKCLKVGMLKEGVRLD was 0.097 ± 0.047; that for KRLTLVCGDIASGYHYGVASCEACKAFFKRTIQGNIEYSCPATNECEITKRRRKSCQACRFMKCLKVGMLKEGVRLD was -0.79 ± 0.17.
The result for KRLCLVCGDIASGYHYGVASCEACKAFFKRTIQGNIEYSCPATNECEITKLRRKSCQACRFMKCLKVGMLKEGVRLD reads -0.097 ± 0.069.
As for KRLCLVCGDIASGYHYGVASCEACKAFFKRTIQGNIEYSCPATNECEITKNRRKSCQACRFMKCLKVGMLKEGVRLD, the abundance fitness was -0.072 ± 0.087.
The value for KRLCLVCGDIASGYHYGVASCEACKAFFKRTIQGNIQYSCPATNECEITKRRRKSCQACRFMKCLKVGMLKEGVRLD was -0.41 ± 0.1.
Consider KRLCLVCGDIASGYHYGVASCEACKAFFKRTIQGNILYSCPATNECEITKRRRKSCQACRFMKCLKVGMLKEGVRLD, for which the abundance fitness was -0.657 ± 0.09.
With KRLCLVCGDIASGYHYGVASCETCKAFFKRTIQGNIEYSCPATNECEITKRRRKSCQACRFMKCLKVGMLKEGVRLD, the abundance fitness is -0.376 ± 0.091.
The value for KRLCLVCGDIASGYHYGVASCEACKAFFKRTGQGNIEYSCPATNECEITKRRRKSCQACRFMKCLKVGMLKEGVRLD was -0.344 ± 0.048; that for KRLCLVCGDIASGYHYGVASCEACKAFFKRTIQGNIEYSCPATNECEITKRRRKSCQACRFMKCLKVGMLKEGVRKD was -0.028 ± 0.07; that for KRLCLVCGDIASGYHYGVASCEACKAFFKRTIQGNIEYSCPATNECEITKRRRKSCQACRFMKCLKVGMLKEGVRAD was 0.124 ± 0.057.
The result for KRLCLVCGDHASGYHYGVASCEACKAFFKRTIQGNIEYSCPATNECEITKRRRKSCQACRFMKCLKVGMLKEGVRLD reads -0.011 ± 0.084.
As for KRLCLVCGDIASGYHYGVASCEACKAFFKRTIQGNIEYSCPAINECEITKRRRKSCQACRFMKCLKVGMLKEGVRLD, the abundance fitness was -0.065 ± 0.1.
The result for KRLCLVCGDIASGYHYGVASCEACKAFFKRHIQGNIEYSCPATNECEITKRRRKSCQACRFMKCLKVGMLKEGVRLD reads -0.655 ± 0.18; that for KRLCLVCGDIASGYHYGVASCEACKAFFKRCIQGNIEYSCPATNECEITKRRRKSCQACRFMKCLKVGMLKEGVRLD, -0.423 ± 0.086; that for KRLCLVCGDIASGYHYGVASCEACKAFFKRTIQGNIEYSCPATNECEITKRRRKSCQACRFMKDLKVGMLKEGVRLD, -1.05 ± 0.26.
The value for KRLCLVCGDIASGYHYGVASCEACKAFFKRTIQGNIEYSCPATNECEITKRRRKSCQACRFMKTLKVGMLKEGVRLD was -0.658 ± 0.15.
The value for KRLCLVCGDIASGYHYGVASCEACKAFFKRTIQGNIEYSCPATNECEITKRRRKSCQACRFMKLLKVGMLKEGVRLD was -0.826 ± 0.1; that for KRLCLVCGDIASGYHYGVASCEACKAFFKRTIQGNIEYSCPATNECEITKRRRKSCQACRFMKCLKVGMLKEPVRLD was 0.019 ± 0.071.
On to KRLCLVCGDIASGYHYGVASCEACKAFFKRTIQGNIEYSCPATNECEITKRRRKSCQACRFMKCLKVGMLKEKVRLD, for which the abundance fitness came out at 0.017 ± 0.068.
Turning to KRLCLVCGDIASGYHYGVASCEACKAFFKRTIQGNIEYSCPATNECEITKRRRKSCQACRFMKCLKVGMLKEVVRLD, the abundance fitness is -0.132 ± 0.05.
With KRLCLVCGDIASGYHYGVASCEACKAFFKRTIQGNIEYSCPATNECEITKRRRKSCQACRFMKCLKVGMLKEAVRLD, the abundance fitness amounted to 0.08 ± 0.049.
On to KRLCLVCGDIASGYHYGVASCEACKAFFKRTIQGNIEYSCPATNECEITKRRRKSCQACRFMKCLKVGMLKEWVRLD, for which the abundance fitness is -0.031 ± 0.057.
For KRLCLVCGDIASGYHYFVASCEACKAFFKRTIQGNIEYSCPATNECEITKRRRKSCQACRFMKCLKVGMLKEGVRLD, the abundance fitness was -0.551 ± 0.26.
The value for KRLCLVCGDIASGYHYTVASCEACKAFFKRTIQGNIEYSCPATNECEITKRRRKSCQACRFMKCLKVGMLKEGVRLD was -0.337 ± 0.078; that for KRLCLVCGDIASGYHYGVASCLACKAFFKRTIQGNIEYSCPATNECEITKRRRKSCQACRFMKCLKVGMLKEGVRLD was -0.233 ± 0.046; that for KRFCLVCGDIASGYHYGVASCEACKAFFKRTIQGNIEYSCPATNECEITKRRRKSCQACRFMKCLKVGMLKEGVRLD was 0.284 ± 0.077.
The value for KRLCLVCGDIASGYHYGVASCEACKAFFKRTIQGQIEYSCPATNECEITKRRRKSCQACRFMKCLKVGMLKEGVRLD was 0.05 ± 0.055; that for KRLCLVAGDIASGYHYGVASCEACKAFFKRTIQGNIEYSCPATNECEITKRRRKSCQACRFMKCLKVGMLKEGVRLD was -0.775 ± 0.11; that for KRLCLVDGDIASGYHYGVASCEACKAFFKRTIQGNIEYSCPATNECEITKRRRKSCQACRFMKCLKVGMLKEGVRLD was -0.602 ± 0.12.
Turning to KRLCLVWGDIASGYHYGVASCEACKAFFKRTIQGNIEYSCPATNECEITKRRRKSCQACRFMKCLKVGMLKEGVRLD, the abundance fitness was -1.22 ± 0.28.
The result for KRLCLVRGDIASGYHYGVASCEACKAFFKRTIQGNIEYSCPATNECEITKRRRKSCQACRFMKCLKVGMLKEGVRLD reads -0.586 ± 0.069.
The value for KRLCLVCGDIASGYHYGVASCEACKAFFKRTIQGNIEYSCPATNECENTKRRRKSCQACRFMKCLKVGMLKEGVRLD was 0.266 ± 0.16; that for KRLCLVCGDIASGYHYGVASCEACKAFFKRTIQGNKEYSCPATNECEITKRRRKSCQACRFMKCLKVGMLKEGVRLD was -0.129 ± 0.062; that for KRLCLVCGDIASGYHYGVASCEACKAFFKRTIQGNPEYSCPATNECEITKRRRKSCQACRFMKCLKVGMLKEGVRLD was -0.182 ± 0.081.
Regarding KRLCLVCGDIASGHHYGVASCEACKAFFKRTIQGNIEYSCPATNECEITKRRRKSCQACRFMKCLKVGMLKEGVRLD, the abundance fitness is -0.034 ± 0.093.
With KRLCLVCGDIASGYHYGVASCEACKAFFKRTIQGNIEYSCPATNECEITKRLRKSCQACRFMKCLKVGMLKEGVRLD, the abundance fitness was determined as 0.099 ± 0.054.
The value for KRLCLVCGDIASGYHYGVASCEACDAFFKRTIQGNIEYSCPATNECEITKRRRKSCQACRFMKCLKVGMLKEGVRLD was 0.375 ± 0.049.
KRLCLVCGDIASGYHYGVASCEACAAFFKRTIQGNIEYSCPATNECEITKRRRKSCQACRFMKCLKVGMLKEGVRLD: the abundance fitness was found to be 0.445 ± 0.035.
The result for KRLCLVCGDIASGYHYGVASCEAGKAFFKRTIQGNIEYSCPATNECEITKRRRKSCQACRFMKCLKVGMLKEGVRLD reads -0.903 ± 0.069.
For the variant KRLCLVCGDIASGYHYGVASCEACKAPFKRTIQGNIEYSCPATNECEITKRRRKSCQACRFMKCLKVGMLKEGVRLD, the abundance fitness is -0.573 ± 0.12.
As to KRLCLVCGDIASGYHYGVASCEACKCFFKRTIQGNIEYSCPATNECEITKRRRKSCQACRFMKCLKVGMLKEGVRLD, the abundance fitness was -0.046 ± 0.061.
The result for KRLCLVCGDIASGYHYGVASCEACKAFFKRTIQGNIEYSCPATNECEITKRRRKSCQLCRFMKCLKVGMLKEGVRLD reads -0.44 ± 0.056; that for KRLCLVCGDIASGYHYGVISCEACKAFFKRTIQGNIEYSCPATNECEITKRRRKSCQACRFMKCLKVGMLKEGVRLD, -0.464 ± 0.14; that for KRLCLVCGDIASGYHYGVASCEACKAFFKRTIQGNIEYSCPATNECEITKRRRKSCQACRFMKCLKVGMLKEGVRLS, -0.059 ± 0.077.
The value for KRLCLVCGDIASGYHYGVASCEACKAFFKRTIQGNIEYSCPATNECEITKRRRKSCQACRFMKCLKVGMLKEGVRLL was -0.168 ± 0.088.
Turning to KRLCLVCGDIASGYHYGVASCEACKAFFKRTIQGNIEYSCPATNECEITKRRRKSCQACRFMKCLKVGMLKWGVRLD, the abundance fitness was -0.503 ± 0.098.
The value for KRLCLVCGDIASGYHYGVASCEACKAFFKPTIQGNIEYSCPATNECEITKRRRKSCQACRFMKCLKVGMLKEGVRLD was -0.989 ± 0.26; that for KRLCLVCGDIASGYHYGVASCEACKAFFKRTIQGNIEYSCPATNECEITKRRRKSCQACRFMKCLKVGLLKEGVRLD was -0.431 ± 0.06; that for KRLCLVCGDIASGYHYGVASCEACKAFFKRTIQGNIEYSCPATNECEITKRRRKSCQACRFMKCLKVGMHKEGVRLD was -0.158 ± 0.15.
As for KRLCLVCGDIASGYHYGVASCEACKAFSKRTIQGNIEYSCPATNECEITKRRRKSCQACRFMKCLKVGMLKEGVRLD, the abundance fitness is -0.832 ± 0.1.
The result for KRLCLVCGDIASGYHYGVASCEACKAFRKRTIQGNIEYSCPATNECEITKRRRKSCQACRFMKCLKVGMLKEGVRLD reads -0.757 ± 0.065.
For KRLCLVCGDIASGYHYGVASCEACKAFFKRTIQGNIEYSCPATNECEITKRRRKSCQACRFCKCLKVGMLKEGVRLD, the abundance fitness was -1.07 ± 0.3.
As for KRLCLVCGDIASGYHYGVASCEACKAFFKRTIQGNIEYSCPATNECEITKRRRKSCQACRFMKCLRVGMLKEGVRLD, the abundance fitness was -0.019 ± 0.043.
The result for KRLCLVCGDIASGYHYGVASCEACKAFFKRTIQGNIEYSCPATNECEITKRRRKSCQACRFMKCLFVGMLKEGVRLD reads -0.585 ± 0.18; that for KRLCLVCGDIAAGYHYGVASCEACKAFFKRTIQGNIEYSCPATNECEITKRRRKSCQACRFMKCLKVGMLKEGVRLD, 0.031 ± 0.053; that for KRLCLVCGDIASGYHYGVASCEACKAFFKRTIQGNIEYSCPATNECEITKRRRKSCQACRFMKCLKVGMLKEGRRLD, -0.191 ± 0.046.
The result for KRLCLVCGDIASGYHYGVASCEACKAFFKRTIQGNIEYSCPATNECEITKRRRWSCQACRFMKCLKVGMLKEGVRLD reads -0.05 ± 0.058; that for KRLCLVCGDIASGYHYGVASCEACKAFFKRTIQGNIEYSCPATNECEITKRRRKSCQACRFMKCLKVGMLKEGVWLD, -0.1 ± 0.052; that for KRLCLVCGDIASGYHYGVASCEACKAFFGRTIQGNIEYSCPATNECEITKRRRKSCQACRFMKCLKVGMLKEGVRLD, 0.096 ± 0.034.
The result for WRLCLVCGDIASGYHYGVASCEACKAFFKRTIQGNIEYSCPATNECEITKRRRKSCQACRFMKCLKVGMLKEGVRLD reads -0.387 ± 0.099; that for GRLCLVCGDIASGYHYGVASCEACKAFFKRTIQGNIEYSCPATNECEITKRRRKSCQACRFMKCLKVGMLKEGVRLD, -0.386 ± 0.071.
For MRLCLVCGDIASGYHYGVASCEACKAFFKRTIQGNIEYSCPATNECEITKRRRKSCQACRFMKCLKVGMLKEGVRLD, the abundance fitness is 0.013 ± 0.074.
Regarding KRLCLVCGDIASGYHYGVASCEACKAFFKRTIQGNIEYSCPATNECEITKRRRKSCQACRFMKCLKYGMLKEGVRLD, the abundance fitness is -0.347 ± 0.14.
